B1: Lipopolysaccharide-induced tumor necrosis factor-alpha factor (Homo sapiens), Q99732 (parent)
chain: MSVPGPYQAATGPSSAPSAPPSYEETVAVNSYYPTPPAPMPGPTTGLVTGPDGKGMNPPSYYTQPAPIPNNNPITVQTVYVQHPITFLDRPIQMCCPSCNKMIVSQLSYNAGALTWLSCGSLCLLGCIAGCCFIPFCVDALQDVDHYCPNCRALLGTYKRL
partner: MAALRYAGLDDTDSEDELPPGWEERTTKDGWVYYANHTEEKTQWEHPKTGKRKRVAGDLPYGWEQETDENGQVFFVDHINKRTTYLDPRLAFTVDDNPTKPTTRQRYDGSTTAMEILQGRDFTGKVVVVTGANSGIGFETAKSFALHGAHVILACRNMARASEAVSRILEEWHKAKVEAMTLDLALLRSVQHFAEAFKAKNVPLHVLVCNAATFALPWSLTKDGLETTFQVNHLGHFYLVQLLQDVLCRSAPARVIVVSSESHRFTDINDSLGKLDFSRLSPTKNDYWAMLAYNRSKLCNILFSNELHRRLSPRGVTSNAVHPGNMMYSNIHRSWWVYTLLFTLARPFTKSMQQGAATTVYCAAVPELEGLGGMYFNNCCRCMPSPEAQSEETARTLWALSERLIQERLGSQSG
B2: WW domain-containing oxidoreductase (Homo sapiens), Q9NZC7 (parent)
chain: B1 partner
B3: WW domain-binding protein 1 (Homo sapiens), Q96G27 (parent)
chain: MARASSGNGSEEAWGALRAPQQQLRELCPGVNNQPYLCESGHCCGETGCCTYYYELWWFWLLWTVLILFSCCCAFRHRRAKLRLQQQQRQREINLLAYHGACHGAGPFPTGSLLDLRFLSTFKPPAYEDVVHRPGTPPPPYTVAPGRPLTASSEQTCCSSSSSCPAHFEGTNVEGVSSHQSAPPHQEGEPGAGVTPASTPPSCRYRRLTGDSGIELCPCPASGEGEPVKEVRVSATLPDLEDYSPCALPPESVPQIFPMGLSSSEGDIP
partner: B1 partner

Variants of B1 are the subject of the first assay. The following applies: with wwox_human WWOX.
For Y23A, the “effect of a mutation on the interaction” value is reported as “decreasing interaction”.
Take Y23A;Y61A: the “effect of a mutation on the interaction” value is given as “disrupting interaction”.

In another assay the parent is B2. Conditions: with litaf_human LITAF.
For the variant Y85A;P88A, the “effect of a mutation on the interaction” value is recorded as “decreasing interaction”.
Take W44F;P47A: the “effect of a mutation on the interaction” value is reported as “disrupting interaction”.

Another assay covers variants of B3. Conditions: with wwox_human WWOX.
On to Y141A, for which the “effect of a mutation on the interaction” value was “disrupting interaction”.

(Values after IntAct's records for PubMed 15064722.)
